The text below walks through data of US20260125478A1 (VIELA BIO, published 2026).

For experiment [1], the target named is T1, human FcγRIIA 131H on blood cells of 131H/H donors (human, UniProt P12318 34-317).
T1 sequence (looked up): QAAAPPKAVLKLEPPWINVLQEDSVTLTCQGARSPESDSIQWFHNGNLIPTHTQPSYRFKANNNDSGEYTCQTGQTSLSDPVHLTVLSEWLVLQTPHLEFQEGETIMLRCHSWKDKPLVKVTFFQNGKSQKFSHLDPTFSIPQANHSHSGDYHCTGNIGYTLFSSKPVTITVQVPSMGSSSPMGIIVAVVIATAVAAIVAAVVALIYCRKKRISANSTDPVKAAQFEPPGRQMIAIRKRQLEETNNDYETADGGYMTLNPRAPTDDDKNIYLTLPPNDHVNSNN
The experiment is described as follows: cell-based or functional assay.

Experiment [2] deals with T2, human FcγRIIA 131R on blood cells of 131R/R donors (human, UniProt P12318 34-317).
T2 sequence: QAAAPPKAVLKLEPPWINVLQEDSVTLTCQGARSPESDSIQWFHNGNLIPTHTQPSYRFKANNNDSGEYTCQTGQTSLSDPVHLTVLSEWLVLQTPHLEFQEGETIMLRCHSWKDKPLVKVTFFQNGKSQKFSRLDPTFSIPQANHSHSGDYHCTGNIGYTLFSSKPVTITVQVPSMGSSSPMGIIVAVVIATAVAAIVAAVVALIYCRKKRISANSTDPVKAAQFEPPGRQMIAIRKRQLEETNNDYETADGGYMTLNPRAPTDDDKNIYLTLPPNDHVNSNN
The experiment is described as follows: cell-based or functional assay.

Experiment [3] has as its target T3, human FcγRIIA on primary human cells (neutrophils; sorted CD14+ monocytes), allotype not stated (human, UniProt P12318 34-317).
T3 construct: whole, on cells; also called human FcγRIIA at the neutrophil surface; FcγRIIA-expressing neutrophils
T3 sequence (looked up): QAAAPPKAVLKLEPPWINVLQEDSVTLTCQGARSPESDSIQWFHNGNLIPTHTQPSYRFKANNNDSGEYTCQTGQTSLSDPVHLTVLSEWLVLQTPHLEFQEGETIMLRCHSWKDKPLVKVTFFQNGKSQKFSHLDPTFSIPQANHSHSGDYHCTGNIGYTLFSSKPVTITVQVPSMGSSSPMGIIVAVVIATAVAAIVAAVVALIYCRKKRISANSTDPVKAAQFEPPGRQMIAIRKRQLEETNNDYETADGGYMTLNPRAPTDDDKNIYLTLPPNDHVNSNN
The experiment is described as follows: flow cytometry, fluorescently labelled antibody on human neutrophils, without IVIG. On the procedure: (§1) Human neutrophils were re-suspended in blocking buffer [phosphate-buffered saline (PBS) supplemented with 10% fetal bovine serum] and transferred to round-bottom 96-well culture plates (0.5×10^6 cells/well). […] After incubation, cells were washed with cold PBS and the mean fluorescence intensity (MFI) of cell-bound antibodies was assessed by flow cytometry using an LSRII (BD; Franklin Lakes, NJ). The EC₅₀ for binding was calculated using a non-linear fit equation in GraphPad Prism 6 software.

Experiment [4] has as its target T4, recombinant human FcγRI (ELISA coat, generated at MedImmune) (human, UniProt P12314 16-292, limits assumed).
T4 construct: also called CD64
The experiment is described as follows: ELISA on plate-coated FcγRI (2 µg/ml), detection with goat anti-human Fc-HRP. On the procedure:
(§2) Plates were washed five times with 200 μl of wash buffer (PBS containing 0.1% Tween 20), blocked with blocking buffer containing 5% milk in PBS for 1 hour at room temperature, and washed five additional times with wash buffer. Three-fold serial dilutions of the test antibody or control antibody (R347-Tm) were added to wells in duplicate. Plates were incubated for 2 hours at room temperature, and washed five times with wash buffer. Binding of the antibodies to the FcγRs was detected by adding 50 μl of goat anti-human Fc-HRP (Jackson ImmunoResearch Laboratories, PA) to the wells and incubating for 1 hour at room temperature, washing 10 times, and adding 50 μl TMB substrate (Pierce Biotechnology, MA). The color reaction was stopped with 50 μl 0.2M […] and the absorbance was measured using a spectrophotometer (Molecular Devices, CA) at […].

For experiment [5], the target named is T5, recombinant human FcγRIIIA-158V allotype (ELISA coat, generated at MedImmune) (human, UniProt P08637 17-208, limits assumed).
T5 construct: also called FcγRIII-158V allotype; CD16A 158V
T5 sequence (P08637 17-208 F176V limits assumed): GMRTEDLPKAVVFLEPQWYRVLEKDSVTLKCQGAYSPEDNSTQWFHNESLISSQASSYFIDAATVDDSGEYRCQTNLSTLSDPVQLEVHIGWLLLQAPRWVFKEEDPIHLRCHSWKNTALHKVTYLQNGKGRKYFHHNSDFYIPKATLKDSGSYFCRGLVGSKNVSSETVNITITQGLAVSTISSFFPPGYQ
The experiment is described as follows: ELISA on plate-coated FcγRIIIA-158V (2 µg/ml), detection with goat anti-human Fc-HRP. On the procedure: as §2

Experiment [6] deals with T3, human FcγRIIA on primary human cells …. The experiment is described as follows: flow cytometry, fluorescently labelled antibody on human neutrophils, 30 min at 4 °C, in the presence of 10 mg/mL IVIG as competitor. On the procedure:
as §1

T4 sequence (P12314 16-292 limits assumed): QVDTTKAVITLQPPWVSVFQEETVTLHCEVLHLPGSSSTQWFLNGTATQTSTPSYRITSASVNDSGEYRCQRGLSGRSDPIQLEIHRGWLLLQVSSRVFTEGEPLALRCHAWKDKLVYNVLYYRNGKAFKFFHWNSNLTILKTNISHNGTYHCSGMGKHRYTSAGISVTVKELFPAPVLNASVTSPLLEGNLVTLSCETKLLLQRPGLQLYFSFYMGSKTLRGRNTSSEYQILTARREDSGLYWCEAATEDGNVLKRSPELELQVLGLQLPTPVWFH

B1: 32LO0352 (MEDI9600) (antibody, human IgG1, V domains shown)
VH: QVQLVQSGAEVKKPGASVKVSCKASGYTFTNYGMNWVRQAPGQRLEWMGWLNTYTGESWYPDDFKGRVTITRDTSASTAYMELSSLRSEDTAVYYCARGDYGYDDPLDYWGQGTLVTVSS
VL: DIVMTQSPLSLPVTPGEPASISCRSSKSLLHTNQNTYLHWFLQKPGQSPQLLIYRMSVLASGVPDRFSGSGSGTDFTLKISRVEAEDVGVYYCMQHLEYPLTFGQGTKLEIK
notes: Fluorescently labelled in the neutrophil flow cytometry assay and Alexa 647 labelled for confocal microscopy; also called clone 32LO0352; CD32LO0352
Turning to B1, the “IC50 of the loss of surface FcγRIIA (M.F.I of IV.3-Alexa 647) on monocytes, whole blood, 2 h at 37 °C” value stood at 0.0809 nM in experiment [1] and 0.0593 nM in experiment [2]. Further, the EC50 amounted to 0.03 nM in experiment [3] and 3.35 nM in experiment [6]. Besides, the binding result in experiment [4] and in experiment [5] was “no binding (tested: about 15000 ng/ml)” throughout.
